{"source": "paper PMC3981467", "conditions": "phosphorylation at S183"}
{"substance": "p27/Kip1: S183A", "values": [{"measurement": "other", "value": "no change"}]}
